These results are taken from patent WO2001004269A1.

The target of assay [1] is von Willebrand factor (UniProt P04275). The assay is described as above, after thrombin digestion (activated factor VIII) in the absence of antibody. Details: unit not given here.
Assay [2] has the same target. The experiment in a line: biotinylated recombinant factor VIII complexed to von Willebrand factor, captured on the anti-von Willebrand factor antibody MoAb4H1D7, no thrombin digestion, avidin-peroxidase detection. Details: unit not given here.

Consider “human recombinant factor VIII (from UniProt P00451 20-2351)”, for which the OD450 (OD450 (so in the source)) came out at 160 in assay [1] and 460 in assay [2].
